Molecular target: the molecule itself
Test: low-temperature SDS-PAGE; aorta lysates of WT and LSP1-KO mice in NP40-based non-denaturing buffer (crude or after eNOS immunoprecipitation), not boiled, no reducing agent, 7% gel at 4 °C; anti-eNOS immunoblot; dimer to monomers

B1: endothelial nitric oxide synthase (eNOS), mouse, native (enzyme, mouse (endogenous in aorta), UniProt P70313 1-1202, looked up)
chain: MGNLKSVGQEPGPPCGLGLGLGLGLCGKQGPASPAPEPSQAPAPPSPTRPAPDHSPPLTRPPDGPRFPRVKNWEVGSITYDTLSAQAQQDGPCTSRRCLGSLVFPRKLQSRPTQGPSPTEQLLGQARDFINQYYNSIKRSGSQAHEQRLQEVEAEVAATGTYQLRESELVFGAKQAWRNAPRCVGRIQWGKLQVFDARDCRTAQEMFTYICNHIKYATNRGNLRSAITVFPQRCPGRGDFRIWNSQLIRYAGYRQQDGSVRGDPANVEITELCIQHGWTPGNGRFDVLPLLLQAPDEPPELFTLPPEMVLEVPLEHPTLEWFAALGLRWYALPAVSNMLLEIGGLEFPAAPFSGWYMSSEIGMRDLCDPHRYNILEDVAVCMDLDTRTTSSLWKDKAAVEINVAVLHSYQLAKVTIVDHHAATASFMKHLENEQKARGGCPADWAWIVPPISGSLTPVFHQEMVNYFLSPAFRYQPDPWKGSAAKGAGITRKKTFKEVANAVKISASLMGTVMAKRVKATILYGSETGRAQSYAQQLGRLFRKAFDPRVLCMDEYDVVSLEHEALVLVVTSTFGNGDPPENGESFAAALMEMSGPYNSSPRPEQHKSYKIRFNSVSCSDPLVSSWRRKRKESSNTDSAGALGTLRFCVFGLGSRAYPHFCAFARAVDTRLEELGGERLLQLGQGDELCGQEEAFRGWAQAAFQAACETFCVGEDAKAAARDIFSPKRSWKRQRYRLSTQAESLQLLPGLTHVHRRKMFQATILSVENLQSSKSTRATILVRLDTGGQEGLQYQPGDHIGVCPPNRPGLVEALLSRVEDPPPSTEPVAVEQLEKGSPGGPPPGWVRDPRLPPCTLRQALTYFLDITSPPSPRLLRLLSTLAEESSEQQELEALSQDPRRYEEWKWFSCPTLLEVLEQFPSVALPAPLILTQLPLLQPRYYSVSSAPSAHPGEIHLTIAVLAYRTQDGLGPLHYGVCSTWMSQLKAGDPVPCFIRGAPSFRLPPDPNLPCILVGPGTGIAPFRGFWQDRLHDIEIKGLQPAPMTLVFGCRCSQLDHLYRDEVLDAQQRGVFGQVLTAFSRDPGSPKTYVQDLLRTELAAEVHRVLCLEQGHMFVCGDVTMATSVLQTVQRILATEGGMELDEAGDVIGVLRDQQRYHEDIFGLTLRTQEVTSRIRTQSFSLQERQLRGAVPWSFDPPGPEIPGS
notes: mouse endothelial nitric oxide synthase, native protein of the aorta; dimer band at 260 kDa; Written as the protomer, for the row of the protein with itself; also called mouse eNOS; WT eNOS; source: endogenous, aorta lysate of 129/SvJ wild-type mice (also LSP1-KO mice)
- stoichiometry N: 2

Reference: paper PMC10813790, “Lymphocyte-Specific Protein 1 Regulates Expression and Stability of Endothelial Nitric Oxide Synthase” (Biomolecules, 2024)
